Consider 43 molecules from US20210380679A1 (INHIBRX BIOSCIENCES, published 2021).

By EC50 (read off the curve) is commonly meant the concentration at which the effect is half-maximal. Higher therefore signals lower potency in that assay.

Residue numbers refer to the chain shown, from its start.

The experiment deals with T1, human DLL3 (Delta-like ligand 3) (human, UniProt Q9NYJ7 27-618).
T1 construct: endogenous on SHP-77 cells; also called cell-surface DLL3
T1 sequence: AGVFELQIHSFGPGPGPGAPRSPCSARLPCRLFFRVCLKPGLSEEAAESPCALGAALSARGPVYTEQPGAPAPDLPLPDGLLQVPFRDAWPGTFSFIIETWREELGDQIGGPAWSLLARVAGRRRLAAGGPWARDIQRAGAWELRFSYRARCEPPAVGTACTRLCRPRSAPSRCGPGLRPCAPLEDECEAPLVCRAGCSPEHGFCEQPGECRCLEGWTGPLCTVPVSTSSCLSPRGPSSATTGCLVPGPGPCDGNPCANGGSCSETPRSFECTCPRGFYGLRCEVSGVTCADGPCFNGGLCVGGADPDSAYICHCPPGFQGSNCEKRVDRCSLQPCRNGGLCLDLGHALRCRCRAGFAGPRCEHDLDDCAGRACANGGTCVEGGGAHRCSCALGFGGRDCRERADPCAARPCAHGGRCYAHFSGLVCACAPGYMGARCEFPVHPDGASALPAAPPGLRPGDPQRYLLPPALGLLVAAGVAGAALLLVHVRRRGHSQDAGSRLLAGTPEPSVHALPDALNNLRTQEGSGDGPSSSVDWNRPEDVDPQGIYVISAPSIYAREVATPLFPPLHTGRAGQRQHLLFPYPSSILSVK
The experiment is described as follows: flow cytometry, sdAb-Fc titrated on SHP-77 cells (DLL3 positive), APC anti-human Fc secondary. On the procedure: FIGS. 2A-L set forth a series of graphs depicting the ability of sdAb and humanized variants thereof targeting DLL3 to bind cell surface DLL3.
Specificity and relative affinity were assessed for purified sdAb-Fcs on DLL3-expressing cells. […] A titration series of the fusion protein was incubated with the DLL3-expressing cell lines (approximately 2.5×10⁴ to 5×10⁴ cells/well) for 30 minutes at 4 degrees Celsius in FACS Buffer (PBS 1% BSA, 0.1% NaN₃ pH 7.4) in 96-well plates. Following three wash steps in FACS buffer, an APC-conjugated anti-human Fcγ specific secondary antibody (Jackson ImmunoResearch) was added and incubated for 30 minutes at 4 degrees Celsius. Following three additional wash steps in FACS buffer bound antibody was detected via flow cytometry (IQue Intellicyte).
(In flow cytometry, cells or beads pass a laser one at a time.)

B1: L3G3 (Fc fusion)
VHH: QVQLVQSGGGLVQAGGSLRLSCAASGSIFSINAMGWYREAPGKQRELVAGFTGDGMTKYAESVKGRFTFSRDNAKNTVYLQMNSLKPEDTGVYYCAADVFTDRDHVDWYWGQGTQVTVKP
notes: tested as VHH-human Fc; Fc not specified
For B1, the binding result is recorded as “binds”.

B2: hz3G3v3 (Fc fusion)
VHH: B1 VHH with Q1E, Q6E, L11E, A14P, E39Q, N83S, K86R, P87A, G91A, Q115L
notes: as for B1
For the molecule B2, the binding result is reported as “binds”.

B3: hz3G3v2 (Fc fusion)
VHH: B1 VHH with Q1E, Q6E, L11E, A14P, F69I, N83S, K86R, P87A, G91A, Q115L
notes: as for B1
Consider B3, for which the binding result is “binds”.

B4: hz3G3v4 (Fc fusion)
VHH: B1 VHH with Q1E, Q6E, L11E, A14P, E39Q, F69I, N83S, K86R, P87A, Q115L
notes: as for B1
As to B4, the binding result is given as “binds”.

B5: hz5A7v1 (Fc fusion)
VHH: EVQLVESGGGEVQPGGSLRLSCAASGSDFSINAIGWYRQAPGKQRDMVAGFTGDGVTTYAESVKGRFTISRDNAKNTVYLQMSSLRAEDTAVYYCAADVKIGGDYEWFWGQGTLVTVKP
notes: as for B1
With B5, the binding result is given as “binds”.

B6: L5A7 (Fc fusion)
VHH: B5 VHH with E6Q, E11L, E61D, S83N, R86K, A87P, L114Q
notes: as for B1
Take B6: the binding result was “binds”.

B7: hz5A7v2 (Fc fusion)
VHH: B5 VHH with G55T
notes: as for B1
Consider B7, for which the binding result is given as “binds”.

B8: hz5A7v3 (Fc fusion)
VHH: B5 VHH with D54E
notes: as for B1
As to B8, the binding result was “binds”.

B9: hz5A7v4 (Fc fusion)
VHH: B5 VHH with M47L
notes: as for B1
B9: the binding result is “binds”.

B10: hz5A7v5 (Fc fusion)
VHH: B5 VHH with M47W
notes: as for B1
B10: the binding result is “binds”.

B11: hz5A7v6 (Fc fusion)
VHH: B5 VHH with A40P
notes: as for B1
Turning to B11, the binding result is “binds”.

B12: hz10D9v7 (Fc fusion)
VHH: EVQLVESGGGEVQPGGSLRLSCAASGSIFSINAMGWYRQAPGKQRELVAGFTGDTNTIYAESVKGRFTISRDNAKNTVYLQMSSLRAEDTAVYYCAADVQLFSRDYEFYWGQGTLVTVKP
notes: as for B1
On to B12, for which the binding result is “binds”.

B13: hz10D9v4 (Fc fusion)
VHH: B12 VHH with F29L, L47M
notes: as for B1
On to B13, for which the binding result is reported as “binds”.

B14: hz10D9v5 (Fc fusion)
VHH: B12 VHH with F29L
notes: as for B1
Consider B14, for which the binding result was “binds”.

B15: hz3C5v6 (Fc fusion)
VHH: B12 VHH with T55G, N56S, I58K, F102L, S103T, R104S
notes: as for B1
As for B15, the binding result is reported as “binds”.

B16: hz10D9v2 (Fc fusion)
VHH: B12 VHH with F29L, T55G
notes: as for B1
Regarding B16, the binding result was “binds”.

B17: hz3C5v2 (Fc fusion)
VHH: B12 VHH with A40P, T55G, N56S, I58K, F102L, S103N, R104S
notes: as for B1
For the molecule B17, the “EC50 (read off the curve)” value is about 700 pM.

B18: hz3C5v7 (Fc fusion)
VHH: B12 VHH with T55G, N56S, I58K, F102L, S103Q, R104S
notes: as for B1
For the molecule B18, the binding result is recorded as “binds”.

B19: hz3C5v4 (Fc fusion)
VHH: B12 VHH with D54E, T55G, N56S, I58K, F102L, S103N, R104S
notes: as for B1
Take B19: the binding result is recorded as “binds”.

B20: hz3G3v1 (Fc fusion)
VHH: EVQLVESGGGEVQPGGSLRLSCAASGSIFSINAMGWYRQAPGKQRELVAGFTGDGMTKYAESVKGRFTISRDNAKNTVYLQMSSLRAEDTAVYYCAADVFTDRDHVDWYWGQGTLVTVKP
notes: as for B1
As for B20, the binding result is “binds”.

B21: hz3C5v3 (Fc fusion)
VHH: B12 VHH with N56S, I58K, F102L, S103N, R104S
notes: as for B1
As to B21, the binding result is “binds”.

B22: hz10D9v6 (Fc fusion)
VHH: B12 VHH with F29L, A40P
notes: as for B1
Regarding B22, the binding result is recorded as “binds”.

B23: hz3C5v8 (Fc fusion)
VHH: B12 VHH with T55G, N56S, I58K, F102L, S103N, R104T
notes: as for B1
As to B23, the binding result was “binds”.

B24: hz10D9v3 (Fc fusion)
VHH: B12 VHH with F29L, L47M, D54E, T55G
notes: as for B1
As for B24, the binding result is listed as “binds”.

B25: hz3C5v1 (Fc fusion)
VHH: B12 VHH with T55G, N56S, I58K, F102L, S103N, R104S
notes: as for B1
In the case of B25, the binding result is given as “binds”.

B26: hz3C5v5 (Fc fusion)
VHH: B12 VHH with T55G, N56S, I58K, F102L, R104S
notes: as for B1
As for B26, the binding result is on record as “binds”.

B27: hz10D9v1 (Fc fusion)
VHH: B12 VHH with F29L, L47M, T55G
notes: as for B1
Regarding B27, the binding result is “binds”.

B28: hz6C5v1 (Fc fusion)
VHH: EVQLVESGGGEVQPGGSLRLSCAASEITFSDKTVGWYRQAPGKQRVLVAVISNVDSTNYAESVKGRFTISRDNAKNTLYLQMSSLRAEDTAVYYCHARDFENEYWGQGTLVTVKP
notes: as for B1
Regarding B28, the “EC50 (read off the curve)” value is about 2000 pM.

B29: hz6F1v7 (Fc fusion)
VHH: B28 VHH with T28I, S56A, L78V, H96Y, N102S
notes: as for B1
On to B29, for which the binding result is “binds”.

B30: hz6F1v4 (Fc fusion)
VHH: B28 VHH with A23G, T28I, L78V, H96Y, N102S
notes: as for B1
Take B30: the binding result is “binds”.

B31: hz8E7v3 (Fc fusion)
VHH: EVQLVESGGGEVQPGGSLRLSCGPSEIITSDKSVGWWRQAPGKQRNLVAGISNVGSTNYAQSVKGRFTISRDNAKNTLYLQMSSLRAEDTAVYYCYARDFENEYWGQGTLVTVKP
notes: as for B1
In the case of B31, the binding result was “binds”.

B32: hz8E7v1 (Fc fusion)
VHH: B31 VHH with G23A, P24A, Q61E
notes: as for B1
For B32, the binding result is “binds”.

B33: hz6C5v4 (Fc fusion)
VHH: B28 VHH with A23G, L78V
notes: as for B1
For B33, the binding result was “binds”.

B34: hz6C5v3 (Fc fusion)
VHH: B28 VHH with E61H, L78V
notes: as for B1
Consider B34, for which the binding result is recorded as “binds”.

B35: hz8E7v2 (Fc fusion)
VHH: B31 VHH with G23A, P24A
notes: as for B1
Regarding B35, the binding result was “binds”.

B36: hz6F1v5 (Fc fusion)
VHH: B28 VHH with T28I, L78V, H96Y, N102S, Q107R, L110Q
notes: as for B1
For the molecule B36, the binding result was “binds”.

B37: hz6F1v6 (Fc fusion)
VHH: B28 VHH with T28I, D55E, L78V, H96Y, N102S
notes: as for B1
As for B37, the binding result is reported as “binds”.

B38: hz6C5v5 (Fc fusion)
VHH: B28 VHH with D55E, L78V
notes: as for B1
As for B38, the binding result is reported as “binds”.

B39: hz6F1v2 (Fc fusion)
VHH: B28 VHH with T28I, L78V, H96Y, N102S
notes: as for B1
On to B39, for which the binding result is given as “binds”.

B40: hz6F1v3 (Fc fusion)
VHH: B28 VHH with T28I, E61Q, L78V, H96Y, N102S
notes: as for B1
For the molecule B40, the binding result is “binds”.

B41: hz6F1v1 (Fc fusion)
VHH: B28 VHH with T28I, H96Y, N102S
notes: as for B1
On to B41, for which the “EC50 (read off the curve)” value was about 500 pM.

B42: hz6C5v2 (Fc fusion)
VHH: B28 VHH with L78V
notes: as for B1
Take B42: the binding result is reported as “binds”.

B43: 3C5 (Fc fusion)
VHH: QVQLVQSGGGLVQAGGSLRLSCAASGSIFSINAMGWYRQPPGKQRELVAGFTGDGSTKYADSVKGRFTISRDNAKNTVYLQMNSLKPEDTAVYYCAADVQLLNSDYEFYWGQGTQVTVKP
notes: as for B1
For the molecule B43, the binding result was “binds”.
